Results reported in article PMC3636998.
Each block holds one substance with its values, some of them ahead of it.

How the values were obtained:
DGLα = DGLα (UniProt Q9Y4D2); experiment: anti-V5 co-immunoprecipitation, CaMKIIα blot; conditions: reference: wild type CaMKIIα; sites T286
[1] = biological target: DGLα C-terminal domain, 761-1042 (UniProt Q9Y4D2); experiment: GST cosedimentation, CaMKII blot; conditions: reference: non-phosphorylated CaMKIIα; sites T286
[2] = biological target: DGLα-V5 (full-length diacylglycerol lipase-α with a C-terminal V5-epitope tag) (UniProt Q9Y4D2); experiment: co-IP
[3] = biological target: GST fusion protein containing the C-terminal domain (CTD; residues 761-1042) of DGLα (UniProt Q9Y4D2); experiment: pull-down

percent of reference (DGLα): weaker; reference 100±5%
Substance: CaMKIIα (from UniProt P11798) T286A

other: bound CaMKII normalised to input aliquot [1]: gained; reference 0.11±0.03
Substance: CaMKIIα (from UniProt P11798) Thr286-autophosphorylated CaMKIIα

interaction with DGLα-V5, percent of WT [2]: 100%
Substance: WT CaMKIIα expressed in HEK293T cells (from UniProt P11798 1-478) (enzyme)

CaMKII detected, normalized to the input [3]: 0.37
Substance: purified Thr286-autophosphorylated CaMKIIα (from UniProt P11798 1-478) (enzyme)
